Results: patent publication US20220213176A1 (SHANGHAITECH UNIVERSITY, published 2022)

Columns and labels:
[1] = biological target: SARS-CoV-2 N501Y+D614G mutant pseudovirus spike (spikeΔ19) (SARS-CoV-2, UniProt P0DTC2 14-1254); test: cell-based or functional assay
[2] = biological target: SARS-CoV-2 K417N+E484K+N501Y+D614G mutant pseudovirus spike (spikeΔ19) (SARS-CoV-2, UniProt P0DTC2 14-1254); test: cell-based or functional assay
[3] = biological target: SARS-CoV-2 B.1.617.2 pseudovirus spike (SARS-CoV-2); test: cell-based or functional assay
[4] = biological target: wild-type SARS-CoV-2 pseudovirus spike (spikeΔ19) (SARS-CoV-2, UniProt P0DTC2 14-1254); test: cell-based or functional assay
B.1.351 S-RBD [5] = biological target: T1, B.1.351 S-RBD (SARS-CoV-2, UniProt P0DTC2 319-541); test: BLI (Octet RED96), biotin B.1.351 S-RBD on SA sensor, 1:1 fit
T1 construct: also called spike RBD of B.1.351 (Beta Strain)

B.1.351 S-RBD [6] = biological target: T1, B.1.351 S-RBD; test: BLI (Octet RED96), biotinylated B.1.351 S-RBD on SA biosensor, 1:1 binding model

B1: S-B8 (antibody, V domains shown)
VH: QVQLVQSGGGLIQPGGSLRLSCAASGFTVSLSHMNWVRQAPGKGLEWVSITYGDGNSDYADSVKGRFTISRDNSKNTLYLQMNSLRAEDTAVYYCAREYYYGMDVWGQGTTVTVSS
VL: not shown
notes: also called S-B8 dimer
[1]
  NT50, N501Y+D614G spike pseudovirus neutralization: 0.53 nM
[2]
  NT50 (B.1.351) (nM), pseudovirus neutralization: 1.2 nM
[3]
  NT50 (B.1.617.2) (nM), pseudovirus neutralization: 0.37 nM

B2: S-B8 trimer (other)
heavy: QVQLVQSGGGLIQPGGSLRLSCAASGFTVSLSHMNWVRQAPGKGLEWVSITYGDGNSDYADSVKGRFTISRDNSKNTLYLQMNSLRAEDTAVYYCAREYYYGMDVWGQGTTVTVSSASTKGPSVFPLAPSSKSTSGGTAALGCLVKDYFPEPVTVSWNSGALTSGVHTFPAVLQSSGLYSLSSVVTVPSSSLGTQTYICNVNHKPSNTKVDKKVEPPKSGGGGSGGGGSGGGGSPGSGYIPEAPRDGQAYVRKDGEWVLLSTFLGHHHHHH
light: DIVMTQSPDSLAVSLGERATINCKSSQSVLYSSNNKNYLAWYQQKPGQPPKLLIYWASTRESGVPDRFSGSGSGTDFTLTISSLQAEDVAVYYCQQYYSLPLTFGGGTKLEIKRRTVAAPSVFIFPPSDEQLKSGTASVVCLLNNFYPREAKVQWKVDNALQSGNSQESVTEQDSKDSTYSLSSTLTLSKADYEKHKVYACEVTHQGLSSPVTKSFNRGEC
[2]
  NT50 (B.1.351) (nM), pseudovirus neutralization: 0.35 nM
[3]
  NT50 (B.1.617.2) (nM), pseudovirus neutralization: 0.15 nM

B3: S-E6 (antibody, V domains shown)
VH: QVTLRESGPGLVKPSETLSLTCAVSGGSLSSVNYYWSWIRQHPGKGLEWIGYIYYSGSTNYNPSLKSRVTMSLDTSKNQFSLKLSSVTAADTAVYYCATPGAIMGALHIWGQGTLVTVSS
VL: QAVLTQPSSASSTPGQRVIISCSGSSSNIGSNTVSWYQQVPGAAPKLLIYFDYRRPSGVPDRFSGTRSGTSASLGISGLQSEDEADYYCAAWDDSLSAWVFGRGTKLTVLG
notes: also called S-E6 dimer; dimer S-E6
[4]
  NT50, wild-type SARS-CoV-2 pseudovirus neutralization: 0.025 nM
[1]
  NT50, N501Y+D614G spike pseudovirus neutralization: 0.021 nM
[2]
  NT50 (B.1.351) (nM), pseudovirus neutralization: 0.32 nM
[3]
  NT50 (B.1.617.2) (nM), pseudovirus neutralization: 0.065 nM

B4: S-D4 (antibody, V domains shown)
VH: QVQLQESGGGVVQPGRSLRLSCEVSGFTFSDYGMHWVRQAPGKGLEWVAVIWSEGSTEYYADSVKGRFTISRDNSKDTLYLQMNSLRAEDTAVYYCARPGYPTSTDRSPAAAGARQYYYYGMDVWGQGTTVTVSS
VL: NFMLTQPHSVSESPGKTVTISCTRSGGSGAANYVQWYQQRPGSSPTTLIYEDSRRPPGVPDRFSGSVDTSSNSASLTISGLQTEDEADYYCQSYDSSNHVVFGGGTKLTVLG
notes: also called S-D4 dimer; S-D4 IgG4
[4]
  NT50, wild-type SARS-CoV-2 pseudovirus neutralization: 0.48 nM
[1]
  NT50, N501Y+D614G spike pseudovirus neutralization: 0.042 nM
[2]
  NT50 (B.1.351) (nM), pseudovirus neutralization: 0.66 nM
[3]
  NT50 (B.1.617.2) (nM), pseudovirus neutralization: 0.24 nM

B5: S-E6 trimer (T4F) (other)
heavy: QVTLRESGPGLVKPSETLSLTCAVSGGSLSSVNYYWSWIRQHPGKGLEWIGYIYYSGSTNYNPSLKSRVTMSLDTSKNQFSLKLSSVTAADTAVYYCATPGAIMGALHIWGQGTLVTVSSASTKGPSVFPLAPSSKSTSGGTAALGCLVKDYFPEPVTVSWNSGALTSGVHTFPAVLQSSGLYSLSSVVTVPSSSLGTQTYICNVNHKPSNTKVDKKVEPPKSGGGGSGGGGSGGGGSPGSGYIPEAPRDGQAYVRKDGEWVLLSTFLGHHHHHH
light: QAVLTQPSSASSTPGQRVIISCSGSSSNIGSNTVSWYQQVPGAAPKLLIYFDYRRPSGVPDRFSGTRSGTSASLGISGLQSEDEADYYCAAWDDSLSAWVFGRGTKLTVLGGLGGLVDYKGQPKAAPSVTLFPPSSEELQANKATLVCLISDFYPGAVTVAWKADSSPVKAGVETTTPSKQSNNKYAASSYLSLTPEQWKSHRSYSCQVTHEGSTVEKTVAPTECS
notes: also called trimer S-E6; trimeric S-E6
[3]
  NT50 (B.1.617.2) (nM), pseudovirus neutralization: 0.007 nM
B.1.351 S-RBD [5]
  Kd: 0.58 nM
B.1.351 S-RBD [6]
  Kd: 0.576 nM
